Article PMC3656048, “SAP97 Controls the Trafficking and Resensitization of the Beta-1-Adrenergic Receptor through Its PDZ2 and I3 Domains” (PLoS ONE, 2013)

Biological target: T1, GST-PDZ2 of SAP97 (rat)
T1 chain: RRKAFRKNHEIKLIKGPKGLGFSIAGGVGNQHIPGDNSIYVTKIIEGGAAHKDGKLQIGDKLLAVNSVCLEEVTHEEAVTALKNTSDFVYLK
Assay: pull-down; solubilized membranes of HEK-293 cells expressing 1.2 pmoles of FLAG ß1-AR per mg protein mixed with increasing concentrations of GST-PDZ2; GST pull-downs probed with anti-ß1-AR antibody, optical densities, estimated EC50, n = 3
Settings: one partner purified

EC50: ~1000 nM
B1: full length WT FLAG ß1-AR (receptor)
chain: not shown
notes: human ß1-adrenergic receptor, wild type; also called FLAG-tagged WT ß1-AR; WT ß1-AR; not shown: FLAG, N-terminal, kept
